Data taken from patent publication US20260132464A1, “CIRCULAR RNAS FOR THE DIAGNOSIS AND TREATMENT OF BRAIN DISORDERS” (UNM Rainforest Innovations, priority 2018, published 2026).

Columns and labels:
circHomer1a = circHomer1a expression (circRNA qRT-PCR) after 2 day drug treatment of stem cell-derived mixed neuronal and astrocyte cultures; type: cell-based; settings: 2 days treatment, human 6-9 month differentiated stem cell-derived mixed neuronal and astrocyte cultures
Source text: FIG. 6A is a representative bright-field image from 6-9 month differentiated human embryonic stem cell (hESC)-derived mature mixed neuronal and glial cultures.
FIG. 6B is an immunofluorescence image showing the presence of neurons (MAP2, red) and astrocytes (GFAP, green). Scale bar=100 μm.
05, two-tailed one sample t-test. The number of replicates is also shown within the graph.

[1] = tested on: orbitofrontal cortex (OFC) of subjects with Bipolar Disorder; assay: circRNA microarray profiling, OFC of subjects with Bipolar Disorder vs unaffected Controls (Table 3); design: species or system human
Source text: (§1) Example of circRNA array raw image is also shown.
(§2) The circRNAs in Tables 3 and 4 were identified by profiling circRNA expression in OFC RNA samples from 34 SCZ, 32 BD, and 34 unaffected control subjects from the Stanley Medical Research Institute.
Additional methods for identifying these brain disorder-associated circRNA biomarkers are discussed below.

[2] = tested on: OFC of subjects with SCZ and BD; assay: circRNA-specific qRT-PCR in postmortem OFC of SCZ, BD and Control subjects; design: species or system human; settings: for circRNA expression in OFC, BD patients vs unaffected Controls / circRNA expression in OFC, SCZ patients vs unaffected Controls: qRT-PCR, postmortem OFC
Source text: 05, based on general linear model correcting for RIN, PMI, RI, and brain pH. A schematic showing the multi-exonic nature of circADAM22 is also shown.
In FIGS. 4A-C, E-F **p<. 01, based on a Univariate General Linear Model corrected for RIN, PMI, RI, and brain pH.
A schematic of the exonic nature of circHomer1b is also shown. In all graphs individual SCZ, BD, and Control sample values are shown. ***p<. 001, based on general linear model correcting for RIN, PMI, RI, and brain pH.
(§3) Given that harsh RNAseR treatment can partially digest some circRNAs together with all linear RNAs, thus making circRNA screening semi-quantitative, the present disclosure also provides novel validated and sequence-verified circRNA-specific qRT-PCR primers aimed at the unique circRNA-specific splice junction, which enable the measurement of a subset of dysregulated circRNAs in non RNaseR-treated samples. These primers are shown in FIGS. 3C, 8B, and 14A, B (See also SEQ ID NOS. 2, 3, 5, 6, 8, 9, 11 or 12).

[3] = tested on: OFC of subjects with Schizophrenia; assay: circRNA microarray profiling, OFC of subjects with Schizophrenia vs unaffected controls (Table 4); design: species or system human; settings: relative to Control fold change of circRNA expression
Source text: as §1
FIG. 1C is a volcano plot showing differential circRNA expression in SCZ patients vs unaffected Controls (x-axis=relative to control log 2 fold changes; y-axis: negative log 10 of the p-values). Vertical lines correspond to >1.25-fold changes, and the horizontal line represents p<. 05. Example of validated circRNAs are shown in the graph.
as §2
All circRNA array experiments used for Tables 1-4 were performed by employing a commercially available circRNA microarray platform that uses 13,617 circRNA splice junction probes designed based on previous RNA sequencing and circRNA annotation data (Service sold by Arraystar Inc.). Analysis of circRNA changes in postmortem brain samples from the OFC of subjects with BD uncovered a subset of differentially expressed circRNAs (Table 3) a subset of which stemmed from genes related to synaptic transmission, neuronal development and migration, and short term memory (FIGS. 1A-C, 2A-B), whereas altered circRNAs in SCZ (Table 4 and FIGS. 1A-C, 2A-B) were associated, among others, with the mitogen-activated protein kinase (MAPK/ERK) and protein kinase B (PKB/AKT) pathways. […]

[4] = tested on: DLPFC of subjects with SCZ and BD; assay: circRNA-specific qRT-PCR in postmortem DLPFC of SCZ, BD and Control subjects; design: species or system human
Source text: In all graphs individual SCZ, BD, and Control sample values are shown.
A schematic of the exonic nature of circHomer1b is also shown.
as §3

[5] = tested on: stem cell-derived (iPSC) neuronal cultures from patients with SCZ and BD; assay: circHomer1a levels in iPSC-derived neuronal cultures from SCZ and BD patients vs Control; type: cell-based, human
Source text: 05, two-tailed one sample t-test relative to the Control of the same developmental time-point.
05, two-tailed one sample t-test relative to the Control of the same developmental time-point. In all graphs individual samples are shown.

| Molecule | circHomer1a expression relative to Vehicle (circHomer1a) | circRNA expression in OFC, BD patients vs unaffected Controls [2] | circRNA expression in OFC, SCZ patients vs unaffected Controls [2] | circRNA expression in DLPFC, BD patients vs unaffected Controls [4] | also measured |
| --- | --- | --- | --- | --- | --- |
| CCCC(CCC)C(=O)O [Valproic acid, valproic acid] | increase |  |  |  |  |
| O=C(CCCN1CCC(O)(c2ccc(Cl)cc2)CC1)c1ccc(F)cc1 [Haloperidol] | lack of effect |  |  |  |  |
| circADAM22: circRNA derived from the epilepsy-related gene ADAM metallopeptidase domain 22 (ADAM22) (nucleic acid, listed as Homo sapiens, circular RNA) GTGAATGTAAATGCGAGGACACGTGGTCCGGGTGCATAATGGGAGACACTGGCTATTATCTTCCTAAAAAGTTCACCCAGTGTAATATTGAAGAGTATCATGACTTCCTGAATAGTGGAGGTGGTGCCTGCCTTTTCAACAAACCTTCTAAGCTTCTTGATCCTCCTGAGTGTGGCAATGGCTTCATTGAAACTGGAGAGGAGTGTGATTGTGGAACCCCGGCCGAATGTGTCCTTGAAGGAGCAGAGTGTTGTAAGAAATGCACCTTGACTCAAGACTCTCAATGCAGTGACGGTCTTTGCTGTAAAAAGTGCAAGTTTCAGCCTATGGGCACTGTGTGCCGAGAAGCAGTAAATGATTGTGATATTCGTGAAACGTGCTCAGGAAATTCAAGCCAGTGTGCCCCTAATATTCATAAAATGGATGGATATTCATGTGATGGTGTTCAGGGAATTTGCTTTGGAGGAAGATGCAAAACCAGAGATAGACAATGCAAATACATTTGGGGGCAAAAGGTGACAGCATCAGACAAATATTGCTATGAGAAACTGAATATTGAAGGGACGGAGAAGGGTAACTGTGGGAAAGACAAAGACACATGGATACAGTGCAACAAACGGGATGTGCTTTGTGGTTACCTTTTGTGTACCAATATTGGCAATATCCCAAGGCTTGGAGAACTCGATGGTGAAATCACATCTACTTTAGTTGTGCAGCAAGGAAGAACATTAAACTGCAGTGGTGGGCATGTTAAGCTTGAAGAAGATGTAGATCTTGGCTATGTGGAAGATGGGACACCTTGTGGTCCCCAAATGATGTGCTTAGAACACAGGTGTCTTCCTGTGGCTTCTTTCAACTTTAGTACTTGCTTGAGCAGTAAAGAAGGCACTATTTGCTCAGGAAATGGAGTTTGCAGTAATGAGCTGAAGTGTGTGTGTAACAGACACTGGATAGGTTCTGATTGCAACACTTACTTCCCTCACAATGATGATGCAAAGACTGGTATCACTCTGTCTGGCAATGGTGTTGCTGGCACCAATATCATAATAGGCATAATTGCTGGCACCATTTTAGTGCTGGCCCTCATATTAGGAATAACTGCGTGGGGTTATAA |  | decreased expression | unchanged |  | Fold BD OFC ([1]; circRNA expression in OFC, Bipolar Disorder vs unaffected Controls): 0.5247 |
| circCUL4A: circRNA biomarker for brain disorders, increased in OFC of SCZ patients (nucleic acid, listed as Homo sapiens, circular RNA, circRNA biomarker for brain disorders, increased in OFC of SCZ patients) GTCACGTCCCGTGTGGCTGTGGAGATCTCTGTGTGACTATGGAGGTTTCATCCATGTGGCTCTGAAGGTCTCTGTGTGACTATGGAGGTCGCGTCCCATGTGGCTGTGGAGGTCGCTGTGTGGCTATGGAG |  | unchanged | increased expression |  | Fold SCZ OFC [3]: 1.4626 |
| circHomer1b: circRNA generated from the backsplicing of exons 2 and 3 of HOMER1 pre-mRNA (nucleic acid, listed as Homo sapiens, circular RNA, circRNA generated from the backsplicing of exons 2 and 3 of HOMER1 pre-mRNA) GGAACAACCTATCTTCAGCACTCGAGCTCATGTCTTCCAAATTGACCCAAACACAAAGAAGAACTGGGTACCCACCAGCAAGCATGCAGTTACTGTGTCTTATTTCTATGACAGCACAAGAAATGTGTATAGGATAATCAGTTTAGATGGCTCAAAGGCAATAATAAATAGTACCATCACCCCAAACATGACATTTACTAAAACATCTCAGAAGTTTGGCCAGTGGGCTGATAGCCGGGCAAACACCGTTTATGGATTGGGATTCTCCTCTGAGCATCATCTTTCGAAA |  | reduced | reduced | not |  |
| circHomer1a: circRNA derived from exons 2-5 of Homer protein homolog 1 (HOMER1) (nucleic acid, listed as Homo sapiens, circular RNA) GGAACAACCTATCTTCAGCACTCGAGCTCATGTCTTCCAAATTGACCCAAACACAAAGAAGAACTGGGTACCCACCAGCAAGCATGCAGTTACTGTGTCTTATTTCTATGACAGCACAAGAAATGTGTATAGGATAATCAGTTTAGATGGCTCAAAGGCAATAATAAATAGTACCATCACCCCAAACATGACATTTACTAAAACATCTCAGAAGTTTGGCCAGTGGGCTGATAGCCGGGCAAACACCGTTTATGGATTGGGATTCTCCTCTGAGCATCATCTTTCGAAATTTGCAGAAAAGTTTCAGGAATTTAAAGAAGCTGCTCGACTAGCAAAGGAAAAATCACAAGAGAAGATGGAACTTACCAGTACACCTTCACAGGAATCCGCAGGCGGGGATCTTCAGTCTCCTTTAACACCGGAAAGTATCAACGGGACAGATGATGAAAGAACACCTGATGTGACACAGAACTCAGAGCCAAGGGCTGAACCAACTCAGAATGCATTGCCATTTTCACATAG |  | reduced | reduced | reduced | Fold BD OFC ([1]; circRNA expression, OFC of subjects with Bipolar Disorder vs unaffected Controls): 0.6440; correlation of expression with duration of illness ([2]; SCZ and BD patients (FIGS. 4H, 5D; OFC and DLPFC)): positively correlated; correlation of expression with age of onset of disease ([2]; SCZ patients (FIGS. 4G, 5C; OFC and DLPFC)): positively correlated; circHomer1a expression in iPSC neuronal cultures, patients vs Control [5]: reduced; circRNA expression in DLPFC, SCZ patients vs unaffected Controls ([4]; SCZ): reduced |
